Results as given in patent US20120301393A1, “MODIFIED UBIQUITIN PROTEINS HAVING A SPECIFIC BINDING ACTIVITY FOR THE EXTRADOMAIN B OF FIBRONECTIN” (Scil Proteins GmbH, priority 2009, published 2012).
Entries after “also recorded” stand apart in the source; their conditions may differ.

Legend:
L929 cells = experiment: L929 apoptosis assay (TNFα activity); assay type: cell-based; settings: actinomycinD sensitized L929 cells, 48 h; listed as free cytokine; read-out: EC50 value, corresponding TNFα (free cytokine) tested in parallel
Experimental: The physiological TNFα-activity of TNFα-modified ubiquitin based ED-B binding fusions has been determined using the L929 apoptosis assay (Flick et al., 1984 J. Immunol. Methods. 68:167-175). In this assay, TNF-alpha efficiently stimulates cell death in actinomycinD sensitized cells at EC50 values in the picomolar range.
Cells have been resuspended in medium containing FBS and antibiotics. A cell suspension of 100 μl of a densitiy of 3.5×10^5 cells/ml has been seeded into the wells of a 96 well standard cell culture plate followed by over night incubation in a humidified CO2 incubator. Thereafter, the culture medium has been removed and 50 μl of medium containing FBS, ActinomycinD and antibiotics has been added to each well followed by a further 30 min incubation time. Thereafter, 50 μl of the test items, TNFα-modified ubiquitin based ED-B binding-fusions or the human recombinant TNFαcontrol, at an appropriate concentration range of between 10^−7 and 10^−18 M, have been added. After a further 48 h incubation time the metabolic activity as a measure of cell survival was determined using WST-1 reagent (Roche).
Per test item at least three independent experiments have been conducted, each of them in triplicates. […]
The quantitative evaluation is based on the EC50-value, i.e. the value according to the test item concentration promoting the survival of half of the cells.

[1] = test system: human fetal lung fibroblast cells (Wi38); experiment: binding to cell culture cells, Wi38; assay type: cell-based; settings: immunofluorescence
Experimental: (§1) The binding of, for example, variant 1041-D11 to cell culture cells was tested. Different cell culture cells were analysed, including normal human fetal lung fibroblast cells having high expression levels of ED-B (Wi38 cells), a mouse embryonic fibroblast cell line (Balb 3T3); a stromal cell line, derived from mouse bone marrow (ST-2) monocytes/macrophages (RAW 264.7), NHDF cells and murine fibroblast cells (LM).
The negative control cell type NHDF are primary normal fibroblast cells, which express low levels of EDB-fibronectin (data not shown).
The negative control cell type NHDF is primary normal fibroblast cells, which express low levels of EDB-fibronectin. The cells were plated in chamber-slides (NUNC, 60000 cells/ml). To analyses the binding potential the cells were fixed with 100% MeOH for 5 min at −20° C. To block unspecific binding, the cells were incubated with 5% Horse-serum 1 h 37° C. The cells were tested with the variant 1041-D11, an ED-B specific antibody FV28 CH4/F1 as positive control or UB—2 as negative control with different concentrations 1 h RT. The proving occurred about an incubation with rabbit-a-Strep-Tag-IgG (obtained from GenScript A00875, 1:500) for 1 h and incubation with a-rabbit-IgG*Alexa488-AK (obtained from Invitrogen A11008, 1:1000) for 1 h. The nuclei were stained with DAPI. […] The first 2 lines show the variant and positive control on Wi38-cell line.

[2] = target: ED-B containing fibronectin fragment (67B89) (Homo sapiens, UniProt P02751); experiment: label-free interaction assay using Biacore; assay type: binding; settings: 1:1-Langmuir-fitting
Experimental: Different concentrations of the variant were analyzed (for example, 0-200 nM of the variant, preferably 1041-D11) for binding to an ED-B containing fibronectin fragment (referred to as 67B89) immobilized on a CM5-chip (Biacore) using methods known to those skilled in the art. The obtained data were processed via the BIAevaluation software and 1:1-Langmuir-fitting. The kinetic binding constants were kon=7.6*10^5 M^−1 s^−1; koff=7.7*10^−4 s^−1. […]

[3] = target: immobilized ED-B containing fibronectin fragment (67B89) (Homo sapiens, UniProt P02751); experiment: competitive concentration dependent ELISA; assay type: binding; settings: in the presence of increasing amounts of free target
Experimental: Competitive concentration dependent ELISAs analyzed the binding of ubiquitin variant 1041-D11 to immobilized ED-B containing fibronectin fragment […] in the presence of increasing amounts of free target. Conditions of the ELISA were as described for Example 5A, except that 1041-D11 protein was preincubated with ED-B (67B89) (0 μM-10 μM) or also with negative control 6789 (0 μM-10 μM) for 1 h and subsequently the mixture was given to the target 67B89 that was placed on a Medisorp-plate; following this, the variant was detected by the corresponding antibody (anti-Ubiquitin-Fab-POD; dilution 1:6500).

ED-B (67B89) = ED-B (67B89) (Homo sapiens, UniProt P02751); experiment: concentration dependent ELISA analyzing serum-stability of binding activity; settings: 1 h at 37° C. in mouse or rat serum
Experimental: The ELISA is performed using procedures well known in the art and as described above (Example 5A and 5B). ED-B (here referred to as 67B89) is coated to microtiter plates, the variant is bound to ED-B and detected by a specific ubiquitin-antibody (Anti-Ubi-Fab-POD). The variant in this assay is treated in different ways: the variant is incubated in mouse serum for 1 h at 37° C. (see in FIG. 13, circles in blue); the variant is incubated in rat serum for 1 h at 37° C. (in FIG. 13, circles in red); or the variant is incubated PBS for 1 h at 37° C. (in FIG. 13, circles in black).

[4] = target: T1, Human fibronectin lacking the ED-B domain (h6789) (Homo sapiens, UniProt P02751); experiment: concentration dependent ELISA, negative control fibronectin fragment without ED-B; assay type: binding
T1 construct: fibronectin fragment 6789 without ED-B

murine Balb 3T3-cells = experiment: binding to cell culture cells, Balb 3T3; assay type: cell-based; settings: 1, 10, 50 nM
Experimental: as §1
(§2) Similar experiments were performed using different cells types, for example Balb3T3 (ATCC, Kat-Nr. 30-2002), Raw (Lonza, Kat-Nr. BE12-115F/U1), ST-2 (Lonza, Kat-Nr. BE12-115F/U1).

[5] = tissue panel staining (48 tissues, FDA relevant panel)
[6] = target: T2, ED-B free fibronectin fragment 6789 (Homo sapiens, UniProt P02751); experiment: complex-formation analysis by SE-HPLC with 6789; assay type: binding; settings: 0.72 nmol each, 1 h RT
T2 construct: fibronectin fragment 6789 without ED-B
Experimental: (§3) For the analysis of complex formation, Tricorn Superdex 75 5/150 GL columns (GE-Healthcare) (V=3 ml) was used, protein amount of 50 μl was applied. Further conditions: buffer: 1×PBS, pH 7.3, flow-rate: 0.3 ml/min, run: 45 min (injection of sample: after 15 min). Condition: 0.72 nmol 1041-D11 protein+0.72 nmol ED-B (herein referred to 67B89 or also as a negative control 6789) incubated for 1 h at RT; then applied to column for analysis of complex-formation. In FIG. 14, only the variant is shown in black, only the target ED-B is shown in blue, the variant binding building a complex with ED-B in pink.

[7] = target: fibronectin fragment 67B89 (soluble ED-B) (Homo sapiens, UniProt P02751); experiment: complex-formation analysis by SE-HPLC with 67B89; assay type: binding; settings: 0.72 nmol each, 1 h RT
Experimental: as §3

[8] = test system: monocytes/macrophages (RAW 264.7); experiment: binding to cell culture cells, Raw; assay type: cell-based; settings: data not shown
Experimental: as §1, §2

murine ST-2-cells = experiment: binding to cell culture cells, ST-2; assay type: cell-based; settings: 1, 10, 50 nM
Experimental: as §1, §2

[9] = target: T3, ED-B in F9 tumor vasculature (Mus musculus, UniProt P11276); experiment: immunohistochemistry on F9 tumor tissue sections; design: species or system mice; settings: seven samples
T3 construct: 1041-D11 specifically decorates the vasculature in tissue sections from F9 tumors; from tissue; host or cells: F9 tumor tissue sections from mice
Experimental: F9 tumor tissues from seven samples were evaluated. […] ED-B is a highly specific marker for tumor vasculature. The target protein EDB is located on the abluminal side of the vessels. 1041-D11 specifically decorates the vasculature in tissue sections from F9 tumors. […] Thus, fusion proteins based on modified ubiquitin specifically binding to ED-B are suitable an ED-B based targeted therapy for cancer.

Chain of ED-B containing fibronectin fragment (67B89) (P02751 32-2477): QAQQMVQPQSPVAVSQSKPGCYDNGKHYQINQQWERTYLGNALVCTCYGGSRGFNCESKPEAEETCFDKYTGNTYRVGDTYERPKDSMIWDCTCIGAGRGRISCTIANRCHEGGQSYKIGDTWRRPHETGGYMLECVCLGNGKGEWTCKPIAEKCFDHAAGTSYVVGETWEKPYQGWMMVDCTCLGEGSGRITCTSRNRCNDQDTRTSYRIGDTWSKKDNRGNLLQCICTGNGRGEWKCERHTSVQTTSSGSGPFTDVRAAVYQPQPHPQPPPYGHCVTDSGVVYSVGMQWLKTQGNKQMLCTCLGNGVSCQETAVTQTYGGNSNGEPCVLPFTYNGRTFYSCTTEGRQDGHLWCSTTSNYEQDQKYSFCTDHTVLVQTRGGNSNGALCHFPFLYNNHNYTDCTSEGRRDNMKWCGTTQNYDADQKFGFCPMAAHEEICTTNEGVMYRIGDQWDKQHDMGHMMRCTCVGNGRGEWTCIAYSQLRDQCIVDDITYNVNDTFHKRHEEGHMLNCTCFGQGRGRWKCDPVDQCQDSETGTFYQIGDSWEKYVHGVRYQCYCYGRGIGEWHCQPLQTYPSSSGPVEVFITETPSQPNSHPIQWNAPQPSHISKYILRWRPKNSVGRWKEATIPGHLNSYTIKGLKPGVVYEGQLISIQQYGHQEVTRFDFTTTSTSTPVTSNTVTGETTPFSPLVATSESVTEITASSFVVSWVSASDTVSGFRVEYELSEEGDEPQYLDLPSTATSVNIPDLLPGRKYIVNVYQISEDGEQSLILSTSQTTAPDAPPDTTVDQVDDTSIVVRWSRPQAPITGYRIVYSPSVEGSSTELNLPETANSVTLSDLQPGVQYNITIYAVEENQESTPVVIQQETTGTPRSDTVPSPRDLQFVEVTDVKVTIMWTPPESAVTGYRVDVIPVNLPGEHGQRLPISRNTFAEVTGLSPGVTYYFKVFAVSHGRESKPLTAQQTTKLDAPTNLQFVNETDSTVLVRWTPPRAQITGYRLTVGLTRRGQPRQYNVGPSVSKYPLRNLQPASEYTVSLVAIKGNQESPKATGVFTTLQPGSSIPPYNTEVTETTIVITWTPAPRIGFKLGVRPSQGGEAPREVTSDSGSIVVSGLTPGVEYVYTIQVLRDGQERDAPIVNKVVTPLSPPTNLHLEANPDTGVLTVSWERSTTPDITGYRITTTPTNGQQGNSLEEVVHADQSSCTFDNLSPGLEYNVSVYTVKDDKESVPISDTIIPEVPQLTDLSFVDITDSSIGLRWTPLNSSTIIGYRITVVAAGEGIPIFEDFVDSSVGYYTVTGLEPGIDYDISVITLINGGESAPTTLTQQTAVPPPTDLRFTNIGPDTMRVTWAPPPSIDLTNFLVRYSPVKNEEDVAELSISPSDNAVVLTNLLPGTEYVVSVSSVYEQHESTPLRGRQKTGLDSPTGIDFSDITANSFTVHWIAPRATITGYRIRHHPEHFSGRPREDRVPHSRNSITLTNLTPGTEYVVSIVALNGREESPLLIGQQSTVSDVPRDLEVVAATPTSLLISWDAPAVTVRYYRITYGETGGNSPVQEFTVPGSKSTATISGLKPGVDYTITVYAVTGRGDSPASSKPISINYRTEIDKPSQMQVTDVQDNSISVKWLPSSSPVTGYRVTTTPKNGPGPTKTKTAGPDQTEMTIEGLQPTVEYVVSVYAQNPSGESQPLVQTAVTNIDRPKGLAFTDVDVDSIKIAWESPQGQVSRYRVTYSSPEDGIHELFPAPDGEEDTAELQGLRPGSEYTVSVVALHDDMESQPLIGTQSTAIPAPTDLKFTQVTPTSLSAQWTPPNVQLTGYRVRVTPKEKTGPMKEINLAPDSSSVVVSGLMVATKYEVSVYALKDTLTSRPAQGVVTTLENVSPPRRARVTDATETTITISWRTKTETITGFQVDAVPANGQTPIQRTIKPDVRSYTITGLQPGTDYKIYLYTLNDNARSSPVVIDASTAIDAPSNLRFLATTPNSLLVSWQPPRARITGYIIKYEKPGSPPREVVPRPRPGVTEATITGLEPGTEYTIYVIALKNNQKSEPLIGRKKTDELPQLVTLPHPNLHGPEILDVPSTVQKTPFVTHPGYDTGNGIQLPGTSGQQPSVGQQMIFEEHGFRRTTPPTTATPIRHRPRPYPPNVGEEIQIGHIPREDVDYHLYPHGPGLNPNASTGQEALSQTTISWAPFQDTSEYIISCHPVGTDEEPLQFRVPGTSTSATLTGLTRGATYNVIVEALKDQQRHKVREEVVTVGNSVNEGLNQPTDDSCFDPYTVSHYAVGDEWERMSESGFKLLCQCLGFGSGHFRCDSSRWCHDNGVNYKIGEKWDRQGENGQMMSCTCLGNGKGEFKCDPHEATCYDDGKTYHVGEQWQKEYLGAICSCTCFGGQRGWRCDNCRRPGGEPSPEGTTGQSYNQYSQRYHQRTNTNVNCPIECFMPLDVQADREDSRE
T2 sequence (P02751 1089-1449 isoform P02751-1): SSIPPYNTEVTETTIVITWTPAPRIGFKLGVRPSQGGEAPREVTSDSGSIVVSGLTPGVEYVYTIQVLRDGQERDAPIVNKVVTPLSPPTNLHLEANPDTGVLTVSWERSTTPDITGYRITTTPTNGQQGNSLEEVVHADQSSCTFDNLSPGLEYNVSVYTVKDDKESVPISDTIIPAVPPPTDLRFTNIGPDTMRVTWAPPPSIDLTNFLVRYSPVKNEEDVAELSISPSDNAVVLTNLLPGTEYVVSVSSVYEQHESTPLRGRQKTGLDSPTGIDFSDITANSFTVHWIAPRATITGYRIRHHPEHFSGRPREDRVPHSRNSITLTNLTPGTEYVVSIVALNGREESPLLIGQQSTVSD
Chain of fibronectin fragment 67B89 (soluble ED-B) (P02751 32-2477): as the sequence (P02751 32-2477) above
T1 sequence (P02751 1089-1449 isoform P02751-1 limits assumed): as the sequence (P02751 1089-1449 isoform P02751-1) above
Chain of immobilized ED-B containing fibronectin fragment (67B89) (P02751 32-2477): as the sequence (P02751 32-2477) above
Chain of ED-B (67B89) (P02751 32-2477): as above

koff [2] | kon [2] | IC50 [3] | binding to negative control fibronectin fragment without ED-B (6789) [4] | staining of F9 tumor tissue sections [9] | Substance | EC50 (L929 cells) | binding to vital Wi38 cells [1] | binding to fixed Wi38 cells ([1]; 58.7 nM and 587 nM) | influence of blood serum on binding to ED-B (ED-B (67B89)) | binding to fixed murine Balb 3T3-cells (murine Balb 3T3-cells) | unspecific staining in 48 tissues of FDA relevant panel [5] | complex formation with 6789 [6] | complex formation with 67B89 [7] | binding to monocytes/macrophages (Raw) [8] | binding to fixed murine ST-2-cells (murine ST-2-cells)
– | – | – | – | – | TNFα [reference compound] | 0.00314 ± 0.00359 nM | – | – | – | – | – | – | – | – | –
0.00077 s⁻¹ | 760000 M⁻¹ s⁻¹ | 140 nM | no binding | ED-B specific vascular staining | 1041-D11: hetero-dimeric ubiquitin variant: K6W, L8W, K63R, E64K, S65F, T66P; second module Q2R, K6T, L8Q, Q62W, K63S, E64N, S65W, T66E | – | binds to vital Wi38 cells with high specificity | binds to fixed Wi38 cells with high specificity | not significantly influenced | binds to murine Balb 3T3 cells with high specificity | no unspecific staining | no significant binding; also recorded: builds no complex | formation of a complex; also recorded: builds a complex | No binding | binds to murine Balb ST-2 cells with high specificity
